Source: patent publication US8022178B2, “Modified self-assembling peptides” (Massachusetts Institute of Technology, priority 2006, dated 2011)

Assays:
bFGF = bFGF (Homo sapiens, UniProt P09038); test: bFGF retention in peptide matrix (ELISA); conditions: bFGF 175 ng/insert loaded after gelation; during PBS washing and culturing; FIG. 19
Protocol: The effect of protein retention and delivery using the self-assembling peptide were studied (Table 11). bFGF was used as a model protein. The retention of bFGF in different peptide matrix in different charge condition was measured by ELISA after washing by PBS. After washing out unbound bFGF, the effect of protein retention to self-assembling peptide matrix were evaluated the using cell culturing of HUVEC (human umbilical vein endothelial cells).
The peptide solutions provided in Table 12 were loaded in the culture inserts (10 mm diameter, Millicell-CM, Millipore) and gels were formed using PBS. After gelation, bFGF solution in PBS was added inside and outside and plated for overnight. bFGF was loaded at 175 ng/insert. After loading bFGF, the PBS inside and outside the inserts were exchanged three times (2 hours, 9 hours and 12 hours) to remove unbound bFGF (Washing). After the washing, the PBS was exchanged to the cell culture medium (EGM-2-MV, Camblex) without attached growth factor (bFGF, VEGF and EGF) and placed more than a day (such that the fluid contained in the gel is exchanged from PBS to cell culture medium), then HUVEC (human umbilical vein endothelial cells) were plated at 7.5×10^4 cells on the inserts and cultured for three days.
Cell culturing using cell culture medium (EGM-2-MV) was used without attached growth factor on peptide matrix as negative control. Cell culturing using cell culture medium (EGM-2-MV) was used with attached growth factor on peptide matrix without loading growth factor as positive control. The bFGF concentration in washing buffer (PBS) and cell culture medium (EGM-2-MV) was measured using ELISA. The washing buffer and cell culture medium were exchanged at each measurement period (2 hours, 9 hours and 12 hours for washing, and at the cell seeding (D0), Day 1 (D 1), Day 2 (D2) and Day 3 (D3)). Growth factor retention rate was calculated by accumulating the amount of measured bFGF.

[1] = system: HUVEC (human umbilical vein endothelial cells); test: HUVEC cultured 2-dimensionally on hydrogels: cell attachment and morphology; type: cell-based; design: key to Capillary like morphology: weak: +; medium: ++; strong: +++; very strong: ++++; conditions: HUVEC cultured on hydrogels
Protocol: The effect of functional modified peptide matrix to HUVEC (human umbilical vein endothelial cells) was evaluated by culturing cells 2-dimensionally on the gel.
The peptide solutions shown in Table 19 were loaded in the culture inserts (10 mm diameter, Millicell-CM, Millipore) and gels were formed using cell culture medium (EGM-2-MV, Camblex). Collagen-1 and Matrigel were used as control matrices. HUVEC (human umbilical vein endothelial cells) were plated at 8×10^4 cells on the inserts and cultured up to 7 Days.

[2] = pI and charge of the self-assembling peptide; type: physicochemical
Protocol: (§1) A comparison of the pH dependent property of 1% Ac(RADA)4GGFHRRIKA CONH2 (SEQ ID NO. 6) solution (Code: FHR), self assembling peptide sequence was compared with the heparin-binding motif. FIG. 12 depicts the isoelectric plot and corresponding rheological data when 0.1 N NaOH solution is added to FHR solution to adjust pH. The net charge of the peptide molecule is kept ≧2 when pH<10. Until at point of pH 5.7, the solution keeps viscous state. This movement of pH point where the peptide solution become gel is controlled by the charge induced by the additional motif to the self-assembling peptide. The induced charge prevents the peptide to aggregate to form the gel. Thus, the cell and the peptide solution can be mixed near neutral pH. After complete mixing, the gel formation can be made by adding salt containing solution (e.g., a solution containing a gellation agent or an iso-osmotic solute).
FIG. 18 depicts the isoelectric plot and Rheological data of PFS 1% solution when 0.1 N NaOH solution is added. 1% Ac(RADA)4GGSKPPGTSS-CONH2 solution (Code: SKP, peptide sequence: SEQ ID NO. 7) is a hydrogel composed of peptides with a self-assembling sequence and positively-charged functional motif. Although the pI value of the peptide is 9.74 and it keeps positive charge at near pH 7 range, the gel is formed at the point of pH 4.5. This is because the charge of the molecule around pH 7 range is +1 and smaller than the charge of Ac(RADA)4GGFHRRIKA CONH2 (FHR) (bigger than 3). The charge of the whole peptide should be larger than 2 when the cell is mixed. This pH should be somewhere in 6-8 in order to minimize the damage to the cells. As this sequence is heparin-binding motif, the fiber can attach to the heparin molecule which is abundant at cell surface. This heparin-binding motif provides a specific anchor to the cell. As described in Example 1, this binding synergistically works with the other binding motif (e.g., RGD) to induce biological stimuli for cell proliferation and differentiation. This effect is not limited to the sequences previously describe, but the other motifs, including -XBBXBX- and -XBBBXXBX- sequences. […]

[3] = Isoelectric plot and rheological data when 0.1 N NaOH is added (pH of gel formation); type: physicochemical; conditions: 1% solution, 0.1 N NaOH solution added
From the text: At the point of pH 3.6, the viscous solution become gel and has a higher G′ (stiffness), G″ (viscosity) value. When the pH is increased, the gel breaks into small pieces and it becomes a solution with precipitated peptides. At lower pH, the peptide forms fibers and the fibers make the solution viscous. When the pH becomes higher, and approaches the pI value, the peptide fibers lose their charge and aggregate to form gel. The same gel formation happens when the peptide charge is screened by salts in a salt-containing solution (e.g., a solution containing a gellation agent or an iso-osmotic solute). Once the gel is formed, the fiber structure is broken into pieces to form a precipitate particle.
as §1
FIG. 18 depicts the isoelectric plot and Rheological data of PFS 1% solution when 0.1 N NaOH solution is added. 1% Ac(RADA)4GGSKPPGTSS-CONH2 solution (Code: SKP, peptide sequence: SEQ ID NO. 7) is a hydrogel composed of peptides with a self-assembling sequence and positively-charged functional motif. Although the pI value of the peptide is 9.74 and it keeps positive charge at near pH 7 range, the gel is formed at the point of pH 4.5. […]

Liver progenitor cells = conditions: encapsulated liver progenitor cells (Semino 2003); cited from earlier work

bFGF, sequence (P09038 143-288, species assumed): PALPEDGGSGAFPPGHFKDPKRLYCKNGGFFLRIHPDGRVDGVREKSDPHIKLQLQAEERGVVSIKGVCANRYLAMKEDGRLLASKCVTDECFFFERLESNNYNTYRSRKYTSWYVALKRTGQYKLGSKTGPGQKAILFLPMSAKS

Row | Substance | bFGF (growth factor) retention rate (bFGF) | Cell attachment [1] | charge [2] | pI [2] | pH at which the viscous peptide solution becomes gel [3] | hepatocyte marker expression (Liver progenitor cells) | Capillary like morphology [1] | charge of the molecule around pH 7 range ([2]; around pH 7) | net charge of the peptide molecule ([2]; when pH<10)
1 | Ac(RADA)4-CONH2 | high in the order of KFQ-2P, FHR-2P, RAD-2P then DGR-2P | + (+: Weak(<20%)) | neutral | 6.1 | 3.6 | expressed markers indicative of hepatocyte phenotype | – | – | –
2 | Ac(RADA)4GGFHRRIKA-CONH2 (Ac-RADARADARADARADAGGFHRRIKA-NH2) [FHR = 1% solution; FHR-2P = 2% solution] | high in the order of KFQ-2P, FHR-2P, RAD-2P then DGR-2P | ++ (++: 20-50%) | positively charged | 11.32, | 5.7 | – | + | > 3 | ≥ 2
